Data published in the supplement of paper PMC10567573.

B1: ACBD3 (parent)
chain: YVASHKIEKEEQEKKRKEEEERRR

Variants of: B1
Experiment: protein stability index of a GFP-peptide fusion (GPS, HEK-293T) (PSI 1-6); higher = more stable
Conditions: c terminus: a fixed tail appended
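Further: lentivirally expressed fusions sorted by FACS into six bins by GFP to DsRed ratio, PSI derived from sequencing read proportions per bin multiplied by bin number.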

| Variant | protein stability index |
| --- | --- |
| YVASHKIEKEEQEKKWKEEEERRR [R16W] | 2.27 |
| YVASHKIEKEEQEKKLKEEEERRR [R16L] | 3 |
| YVASHKIEKEEQEKKSKEEEERRR [R16S] | 2.65 |
| YVASHKIEKEEQEKKTKEEEERRR [R16T] | 3.41 |
| YVASHKIEKEEQEKKNKEEEERRR [R16N] | 2.63 |
| YVASHKIEKEEQEKKIKEEEERRR [R16I] | 2.69 |
| RVASHKIEKEEQEKKRKEEEERRR [Y1R] | 5.49 |
| FVASHKIEKEEQEKKRKEEEERRR [Y1F] | 2.11 |
| MVASHKIEKEEQEKKRKEEEERRR [Y1M] | 5.6 |
| KVASHKIEKEEQEKKRKEEEERRR [Y1K] | 5.87 |
| VVASHKIEKEEQEKKRKEEEERRR [Y1V] | 5.68 |
| YVASHFIEKEEQEKKRKEEEERRR [K6F] | 2.79 |
| YVASHPIEKEEQEKKRKEEEERRR [K6P] | 2.67 |
| YVASHDIEKEEQEKKRKEEEERRR [K6D] | 4.14 |
| YVASHCIEKEEQEKKRKEEEERRR [K6C] | 2.98 |
| YVASHKIEWEEQEKKRKEEEERRR [K9W] | 1.86 |
| YVASHKIETEEQEKKRKEEEERRR [K9T] | 2.42 |
| YVASHKIEIEEQEKKRKEEEERRR [K9I] | 2.29 |
| YVASHKIEVEEQEKKRKEEEERRR [K9V] | 2 |
| YVASHKIEKEEQETKRKEEEERRR [K14T] | 2.44 |
| YVASHKIEKEEQENKRKEEEERRR [K14N] | 2.99 |
| YVASHKIEKEEQELKRKEEEERRR [K14L] | 3 |
| YVASHKIEKEEQEYKRKEEEERRR [K14Y] | 2.27 |
| YVASHKIEKEEQEDKRKEEEERRR [K14D] | 3.27 |

| Variant | protein stability index |
| --- | --- |
| YVASHKIEKEEQEPKRKEEEERRR [K14P] | 2.49 |
| YVASHKIEKEEQEKKRLEEEERRR [K17L] | 3.14 |
| YVASHKIEKEEQEKKRTEEEERRR [K17T] | 2.35 |
| YVASHKIEKEEQEKKRNEEEERRR [K17N] | 2.99 |
| YVASHKIEKEEQSKKRKEEEERRR [E13S] | 3.36 |
| YVASHKIEKEEQNKKRKEEEERRR [E13N] | 2.52 |
| YVASHKIEKEEQWKKRKEEEERRR [E13W] | 2.81 |
| YVASHKIEKEEQYKKRKEEEERRR [E13Y] | 2.41 |
| YVASHKIEKEEQMKKRKEEEERRR [E13M] | 2.04 |
| YVASHKIEKEEQTKKRKEEEERRR [E13T] | 2.33 |
| YVASHKIEKEEQEKKRKEERERRR [E20R] | 1.91 |
| YVASHKIEKEEQEKKRKEEIERRR [E20I] | 2.58 |
| YVASHKIEKEEQEKKRKEETERRR [E20T] | 2.57 |
| YVASHKIEKEEQEKKRKEELERRR [E20L] | 1.71 |
| YVASHKIEKEEQEKKRKEEGERRR [E20G] | 1.96 |
| YVASHKIEKEEQEKKRKEEDERRR [E20D] | 2.63 |
| YVASHKCEKEEQEKKRKEEEERRR [I7C] | 3.86 |
| YVASHKSEKEEQEKKRKEEEERRR [I7S] | 3.22 |
| YVASHKAEKEEQEKKRKEEEERRR [I7A] | 3.29 |
| YVASHKHEKEEQEKKRKEEEERRR [I7H] | 3.1 |
| YVASHKIEKEEQEKKRKLEEERRR [E18L] | 2.16 |
| YVASHKIEKEEQEKKRKCEEERRR [E18C] | 2.12 |
| YVASHKIEKEEQEKKRKNEEERRR [E18N] | 1.85 |
| YVASHKIEKEEQEKKRKIEEERRR [E18I] | 2.42 |

| Variant | protein stability index |
| --- | --- |
| YVASHKIEKEEQEKKRKREEERRR [E18R] | 2.26 |
| YVASHKIEKEEQEKKRKMEEERRR [E18M] | 2.46 |
| YVASHKIEKEEQEKKRKYEEERRR [E18Y] | 1.94 |
| YVASHKIEKEEQEKKRKVEEERRR [E18V] | 1.95 |
| YVASHKIEKEEQEKKRKQEEERRR [E18Q] | 2.43 |
| YVASHKIEKEEQEKKRKWEEERRR [E18W] | 3.53 |
| YVASHKIEKEEQEKIRKEEEERRR [K15I] | 2.39 |
| YVASHKIEKEEQEKARKEEEERRR [K15A] | 3.27 |
| YVASHKIEKEEQEKERKEEEERRR [K15E] | 3.07 |
| YVASHKIEKEEQEKRRKEEEERRR [K15R] | 2.69 |
| YVASHKIEKEEQEKPRKEEEERRR [K15P] | 2.4 |
| YVASHKIEKEEQEKSRKEEEERRR [K15S] | 2.79 |
| YVASHKIEKEEQEKYRKEEEERRR [K15Y] | 2.16 |
| YVASHKIEKEEQEKKRKEEEERRF [R24F] | 2.85 |
| YVASHKIEKEEQEKKRKEEEERRT [R24T] | 2.27 |
| YVASHKIEKEEQEKKRKEEEERRS [R24S] | 2.7 |
| YVASHKIEKEEQEKKRKEEEERRG [R24G] | 2.54 |
| YVASHKIEKEEQEKKRKEEEERRP [R24P] | 2.04 |
| YVASHKIEKEEQEKKRKEEEERRA [R24A] | 2.94 |
| YVASHKIEKEEQEKKRKEEEERRW [R24W] | 2.63 |
| YVASHKIEKEEQEKKRKEEEERRY [R24Y] | 2.42 |
| YVESHKIEKEEQEKKRKEEEERRR [A3E] | 2.84 |
| YVMSHKIEKEEQEKKRKEEEERRR [A3M] | 3.14 |
| YVRSHKIEKEEQEKKRKEEEERRR [A3R] | 2.01 |

| Variant | protein stability index |
| --- | --- |
| YVFSHKIEKEEQEKKRKEEEERRR [A3F] | 3.72 |
| YVISHKIEKEEQEKKRKEEEERRR [A3I] | 2.61 |
| YVNSHKIEKEEQEKKRKEEEERRR [A3N] | 2.39 |
| YVSSHKIEKEEQEKKRKEEEERRR [A3S] | 3.04 |
| YVPSHKIEKEEQEKKRKEEEERRR [A3P] | 1.47 |
| YVKSHKIEKEEQEKKRKEEEERRR [A3K] | 2.95 |
| YVQSHKIEKEEQEKKRKEEEERRR [A3Q] | 3.36 |
| YVASHKIEKEEQEKKRKEEEERCR [R23C] | 2.44 |
| YVASHKIEKEEQEKKRKEEEERSR [R23S] | 2.47 |
| YVASHKIEKEEQEKKRKEEEERVR [R23V] | 2.65 |
| YVASHKIEKEEQEKKRKEEEERIR [R23I] | 2.65 |
| YVASHKIEKEEQEKKRKEEEERFR [R23F] | 2.82 |
| YVASHKIEKEEKEKKRKEEEERRR [Q12K] | 2.12 |
| YVASHKIEKEEDEKKRKEEEERRR [Q12D] | 3.76 |
| YVASHKIEKEEFEKKRKEEEERRR [Q12F] | 1.96 |
| YVASHKIEKEESEKKRKEEEERRR [Q12S] | 1.82 |
| YVASHKIEKEEWEKKRKEEEERRR [Q12W] | 1.93 |
| YVASHKIEKEELEKKRKEEEERRR [Q12L] | 2.78 |
| YVASHKIEKEEHEKKRKEEEERRR [Q12H] | 2.27 |
| YVASHKIEKEENEKKRKEEEERRR [Q12N] | 2.18 |
| YVASHKIEKEEREKKRKEEEERRR [Q12R] | 2.26 |
| YVASHKIEKEEIEKKRKEEEERRR [Q12I] | 3.33 |
